Molecular target: the molecule itself
Assay: native gel or EMSA; lysates of A549 and NCI-H460 cells in RIPA buffer; non-reducing LDS sample buffer; NativePAGE Bis-Tris 3-12% gel, run 1.5 h; Western blot; interpreted qualitatively

B1: Butyrophilin-like 9 (BTNL9), wild type, FLAG-tagged or AM-tagged (natural protein, human, UniProt Q6UXG8-1 35-535, looked up)
chain: SSEVKVLGPEYPILALVGEEVEFPCHLWPQLDAQQMEIRWFRSQTFNVVHLYQEQQELPGRQMPAFRNRTKLVKDDIAYGSVVLQLHSIIPSDKGTYGCRFHSDNFSGEALWELEVAGLGSDPHLSLEGFKEGGIQLRLRSSGWYPKPKVQWRDHQGQCLPPEFEAIVWDAQDLFSLETSVVVRAGALSNVSVSIQNLLLSQKKELVVQIADVFVPGASAWKSAFVATLPLLLVLAALALGVLRKQRRSREKLRKQAEKRQEKLTAELEKLQTELDWRRAEGQAEWRAAQKYAVDVTLDPASAHPSLEVSEDGKSVSSRGAPPGPAPGHPQRFSEQTCALSLERFSAGRHYWEVHVGRRSRWFLGACLAAVPRAGPARLSPAAGYWVLGLWNGCEYFVLAPHRVALTLRVPPRRLGVFLDYEAGELSFFNVSDGSHIFTFHDTFSGALCAYFRPRAHDGGEHPDPLTICPLPVRGTGVPEENDSDTWLQPYEPADPALDWW
notes: bZIP domain annotated at residues 281-317; Two differently tagged copies of the same wild-type protein (FLAG copy as bait, AM-tag copy as prey) are written as one molecule; Each copy carries only one of the two tags; also called WT; BTNL9-FLAG; source: A549 and NCI-H460 cells, lentiviral infection, in lysate
  stoichiometry N: 2
